The target of this assay is IGF-I receptor (on L6 cells) (UniProt P24062). The assay can be described thus: cell-based or functional assay.
UniProt P24062, sequence (P24062 31-1370 limits assumed): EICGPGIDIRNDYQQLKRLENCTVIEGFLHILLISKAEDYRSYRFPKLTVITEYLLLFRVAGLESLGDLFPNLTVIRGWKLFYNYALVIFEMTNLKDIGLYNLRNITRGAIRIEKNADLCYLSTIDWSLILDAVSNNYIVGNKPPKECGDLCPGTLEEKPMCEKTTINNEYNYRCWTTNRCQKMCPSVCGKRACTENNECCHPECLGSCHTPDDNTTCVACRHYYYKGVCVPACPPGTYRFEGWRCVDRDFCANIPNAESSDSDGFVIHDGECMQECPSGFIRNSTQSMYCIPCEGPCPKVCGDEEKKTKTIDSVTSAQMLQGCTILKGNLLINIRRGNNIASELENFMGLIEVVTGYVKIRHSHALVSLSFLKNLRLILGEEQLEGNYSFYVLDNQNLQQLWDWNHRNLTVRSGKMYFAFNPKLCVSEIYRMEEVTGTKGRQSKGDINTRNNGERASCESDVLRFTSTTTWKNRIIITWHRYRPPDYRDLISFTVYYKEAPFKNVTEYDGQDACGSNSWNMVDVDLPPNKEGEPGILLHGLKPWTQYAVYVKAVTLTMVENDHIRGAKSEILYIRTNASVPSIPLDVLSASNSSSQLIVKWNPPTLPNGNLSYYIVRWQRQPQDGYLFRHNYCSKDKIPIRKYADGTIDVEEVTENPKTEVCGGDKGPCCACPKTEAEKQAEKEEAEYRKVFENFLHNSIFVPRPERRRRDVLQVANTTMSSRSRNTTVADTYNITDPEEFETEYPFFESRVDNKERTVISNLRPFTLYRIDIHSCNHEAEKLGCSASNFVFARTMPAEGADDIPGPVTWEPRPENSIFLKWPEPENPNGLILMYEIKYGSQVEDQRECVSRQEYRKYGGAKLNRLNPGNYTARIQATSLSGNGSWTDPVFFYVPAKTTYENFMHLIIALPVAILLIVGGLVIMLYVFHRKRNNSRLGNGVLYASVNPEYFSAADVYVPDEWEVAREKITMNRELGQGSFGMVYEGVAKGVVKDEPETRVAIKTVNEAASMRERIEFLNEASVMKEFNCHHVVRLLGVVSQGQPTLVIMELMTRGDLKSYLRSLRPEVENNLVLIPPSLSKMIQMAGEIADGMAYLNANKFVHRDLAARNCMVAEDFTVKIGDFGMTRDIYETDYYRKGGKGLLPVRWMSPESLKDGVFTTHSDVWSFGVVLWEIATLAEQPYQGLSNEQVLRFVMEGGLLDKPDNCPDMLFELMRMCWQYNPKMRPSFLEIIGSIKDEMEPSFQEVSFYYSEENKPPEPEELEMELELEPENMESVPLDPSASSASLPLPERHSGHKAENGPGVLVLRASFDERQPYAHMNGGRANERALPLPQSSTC

In turn, Glargine (Lantus, Aventis) (ligand) came in with an EC50 of L6 cell proliferation (CellTiter-Glo, 2 days) of 900 pM; an EC50 of mitogenic activity, L6 cells of 4730 pM; a Percent mitogenic activity, L6 cells (insulin = 100) of 77 percent.
Regarding Levemir (ligand), the EC50 of mitogenic activity, L6 cells amounted to 14800 pM and the Percent mitogenic activity, L6 cells (insulin = 100) came to 24.7 percent.
Take “IGF-I (from UniProt P05019 49-118) (ligand)”: the EC50 of L6 cell proliferation (CellTiter-Glo, 2 days) was found to be 40 pM; the EC50 of mitogenic activity, L6 cells turned out to be 70 pM; the Percent mitogenic activity, L6 cells (insulin = 100) came to 5230 percent.

The values above are taken from patent US9505823.
